Laboratory results reported in patent US20240374744.

Test system: huHF(+)-DOX (huHF(+) protein nanoparticle-doxorubicin conjugate)
Sequence (chain, as listed by the source): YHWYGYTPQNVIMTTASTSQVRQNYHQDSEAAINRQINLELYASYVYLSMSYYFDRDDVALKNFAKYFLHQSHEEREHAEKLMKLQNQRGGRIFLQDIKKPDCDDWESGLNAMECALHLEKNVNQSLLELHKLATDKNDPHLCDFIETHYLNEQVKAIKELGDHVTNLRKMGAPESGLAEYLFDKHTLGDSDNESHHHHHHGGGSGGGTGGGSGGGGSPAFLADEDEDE

Protein | cleavage of the conjugate and release of doxorubicin (native-PAGE, UV absorbance), enzyme in LPM mixture
cathepsin H (enzyme, UniProt P09668 116-335, looked up, species assumed) Cathepsin H: YPPSVDWRKKGNFVSPVKNQGACGSCWTFSTTGALESAIAIATGKMLSLAEQQLVDCAQDFNNHGCQGGLPSQAFEYILYNKGIMGEDTYPYQGKDGYCKFQPGKAIGFVKDVANITIYDEEAMVEAVALYNPVSFAFEVTQDFMMYRTGIYSSTSCHKTPDKVNHAVLAVGYGEKNGIPYWIVKNSWGPQWGMNGYFLIERGKNMCGLAACASYPIPLV | it was observed that the peptide was not specifically cleaved thereby the drug was not selectively released
PrCP (prolylcarboxypeptidase) (enzyme, UniProt P42785 46-496, looked up, species assumed) Lysosomal Pro-X carboxypeptidase: KNYSVLYFQQKVDHFGFNTVKTFNQRYLVADKYWKKNGGSILFYTGNEGDIIWFCNNTGFMWDVAEELKAMLVFAEHRYYGESLPFGDNSFKDSRHLNFLTSEQALADFAELIKHLKRTIPGAENQPVIAIGGSYGGMLAAWFRMKYPHMVVGALAASAPIWQFEDLVPCGVFMKIVTTDFRKSGPHCSESIHRSWDAINRLSNTGSGLQWLTGALHLCSPLTSQDIQHLKDWISETWVNLAMVDYPYASNFLQPLPAWPIKVVCQYLKNPNVSDSLLLQNIFQALNVYYNYSGQVKCLNISETATSSLGTLGWSYQACTEVVMPFCTNGVDDMFEPHSWNLKELSDDCFQQWGVRPRPSWITTMYGGKNISSHTNIVFSNGELDPWSGGGVTKDITDTLVAVTISEGAHHLDLRTKNALDPMSVLLARSLEVRHMKNWIRDFYDSAGKQH | it was observed that the peptide was not specifically cleaved thereby the drug was not selectively released
